Source: patent US20050136043A1, “TGFbeta signaling inhibitors” (Ludwig Institute for Cancer Research, priority 2003, published 2005)

Key:
Assay in all cases: In vitro kinase assay (autophosphorylation) of receptor expressed in COS-7 cells
Assay type in all cases: biochemical
Settings in all cases: 10 μM peptide, FIG. 5
ActR-II = molecular target: T1, ActR-II (Homo sapiens, UniProt P27037)
T1 construct: made in house; host or cells: COS-7 cells (transfected, Ni-NTA precipitated)
Method: (§1) For in vitro kinase assay of type I and type II TGFβ family receptors, p38α and SAPKα2 kinases, COS-7 cells were transfected with the kinase expression vectors or the control empty pcDNA3 vector using the DEAE-dextran method. Proteins were extracted in a lysis buffer (50 mM Tris-HCl, pH 7.5, 50 mM NaCl, 1% NP-40, 10 μg/mL aprotinin, 0.1 mM PMSF). HA-tagged proteins (ALK1 to ALK7, p38R, SAPKR2) were immunoprecipitated with anti-HA antibody (12CA5; Roche); His6-tagged proteins (type II receptors) were precipitated with Ni-NTA agarose (Qiagen). The precipitates were washed in extraction buffer, with 20 mM imidazole for Ni-NTA agarose-precipitated proteins, and two times with kinase buffer (20 mM HEPES, pH 7.4, 10 mM MgCl2, 2 mM MnCl2, 1 mM DTT). The kinase reaction was initiated by addition of 20 μL of kinase buffer containing 0.5 μCi of [γ-32P]ATP, 5.0 μM ATP, and inhibitory peptides at a final concentration of 10 μM. The reaction was performed at 22° C. for 20 min and terminated by addition of SDS-containing sample buffer and boiling for 5 min. The reaction products were analyzed by SDS-PAGE and exposure in a Fuji X2000 phosphorimager. Equal loading was controlled by immunoblotting aliquots of the samples with a HA probe (Y-11; Santa Cruz) or anti-His antibody (Qiagen).
(§2) To evaluate whether the substrate-mimicking peptides affect kinases of type I and type II reptors of the TGFβ family, we studied the influence of peptides on authophosphorylation of all known mammalian type I receptors [ALK-1, ActR-I (ALK-2), BMPR-IA (ALK-3), ActR-IB (ALK-4), TβR-I (ALK-5), BMPR-IB (ALK-6), and ALK-7], TβRII, ActR-II, BMPR-II, p38R, and SAPKR2 (FIG. 5). The kinases were expressed in COS-7 cells and purified by using specific anti-tag antibodies or Ni-NTA agarose, and kinase activity was tested in the presence of peptides.

TβRII = molecular target: T2, TβRII (Homo sapiens, UniProt P37173)
T2 construct: made in house; host or cells: COS-7 cells (transfected, Ni-NTA precipitated)
Method: as §1, §2

BMPR-IB (ALK-6) = molecular target: T3, BMPR-IB (ALK-6) (Homo sapiens, UniProt O00238)
T3 construct: made in house; host or cells: COS-7 cells (transfected, immunoprecipitated)
Method: as §1, §2

ALK-7 = molecular target: T4, ALK-7 (Homo sapiens, UniProt Q8NER5)
T4 construct: made in house; host or cells: COS-7 cells (transfected, immunoprecipitated)
T4 sequence (Q8NER5 21-493): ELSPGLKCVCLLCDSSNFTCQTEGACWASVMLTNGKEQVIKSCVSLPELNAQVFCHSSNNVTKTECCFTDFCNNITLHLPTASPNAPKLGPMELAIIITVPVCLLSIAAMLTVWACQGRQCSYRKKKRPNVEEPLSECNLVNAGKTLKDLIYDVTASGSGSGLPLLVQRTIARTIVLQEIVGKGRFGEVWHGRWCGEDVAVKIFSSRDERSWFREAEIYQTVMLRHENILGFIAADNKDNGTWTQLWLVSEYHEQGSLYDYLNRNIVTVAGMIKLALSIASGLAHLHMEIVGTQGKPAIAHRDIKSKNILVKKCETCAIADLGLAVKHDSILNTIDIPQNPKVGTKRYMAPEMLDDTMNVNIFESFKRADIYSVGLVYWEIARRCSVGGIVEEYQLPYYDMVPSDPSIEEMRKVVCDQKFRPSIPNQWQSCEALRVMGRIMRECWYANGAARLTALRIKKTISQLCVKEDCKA
Method: as §1, §2

ActR-IB (ALK-4) = molecular target: T5, ActR-IB (ALK-4) (Homo sapiens, UniProt P36896)
T5 construct: made in house; host or cells: COS-7 cells (transfected, immunoprecipitated)
T5 sequence (P36896 24-505): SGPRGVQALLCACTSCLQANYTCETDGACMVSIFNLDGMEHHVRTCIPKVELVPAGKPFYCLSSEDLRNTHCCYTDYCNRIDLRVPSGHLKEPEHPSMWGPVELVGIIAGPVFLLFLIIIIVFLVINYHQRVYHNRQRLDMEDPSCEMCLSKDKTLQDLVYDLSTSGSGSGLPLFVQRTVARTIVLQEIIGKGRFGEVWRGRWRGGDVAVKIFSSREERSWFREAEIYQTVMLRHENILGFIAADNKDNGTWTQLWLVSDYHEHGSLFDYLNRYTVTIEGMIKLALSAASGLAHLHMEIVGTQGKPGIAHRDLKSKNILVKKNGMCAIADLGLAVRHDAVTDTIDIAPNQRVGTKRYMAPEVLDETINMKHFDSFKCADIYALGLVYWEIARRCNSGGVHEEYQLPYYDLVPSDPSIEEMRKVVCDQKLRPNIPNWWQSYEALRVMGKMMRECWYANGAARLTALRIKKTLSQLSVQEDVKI
Method: as §1, §2

BMPR-IA (ALK-3) = molecular target: T6, BMPR-IA (ALK-3) (Homo sapiens, UniProt P36894)
T6 construct: made in house; host or cells: COS-7 cells (transfected, immunoprecipitated)
Method: as §1, §2

TβR-I (ALK-5) = molecular target: T7, TβR-I (ALK-5) (Homo sapiens, UniProt P36897)
T7 construct: made in house; host or cells: COS-7 cells (transfected, immunoprecipitated)
T7 sequence (P36897 34-503): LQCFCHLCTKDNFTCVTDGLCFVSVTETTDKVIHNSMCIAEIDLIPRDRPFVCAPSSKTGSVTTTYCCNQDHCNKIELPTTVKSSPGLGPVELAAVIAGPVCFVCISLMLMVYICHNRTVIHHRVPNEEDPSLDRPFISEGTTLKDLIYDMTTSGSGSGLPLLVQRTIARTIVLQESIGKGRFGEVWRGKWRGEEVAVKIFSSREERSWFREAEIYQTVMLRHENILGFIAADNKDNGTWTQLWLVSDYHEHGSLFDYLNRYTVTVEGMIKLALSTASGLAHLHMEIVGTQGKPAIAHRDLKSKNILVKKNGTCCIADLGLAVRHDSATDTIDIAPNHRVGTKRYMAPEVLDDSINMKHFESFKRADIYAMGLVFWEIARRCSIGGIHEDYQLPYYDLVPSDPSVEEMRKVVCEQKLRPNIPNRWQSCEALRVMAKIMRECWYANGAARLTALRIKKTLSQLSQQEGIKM
Method: as §1, §2

T1 sequence (P27037 20-513): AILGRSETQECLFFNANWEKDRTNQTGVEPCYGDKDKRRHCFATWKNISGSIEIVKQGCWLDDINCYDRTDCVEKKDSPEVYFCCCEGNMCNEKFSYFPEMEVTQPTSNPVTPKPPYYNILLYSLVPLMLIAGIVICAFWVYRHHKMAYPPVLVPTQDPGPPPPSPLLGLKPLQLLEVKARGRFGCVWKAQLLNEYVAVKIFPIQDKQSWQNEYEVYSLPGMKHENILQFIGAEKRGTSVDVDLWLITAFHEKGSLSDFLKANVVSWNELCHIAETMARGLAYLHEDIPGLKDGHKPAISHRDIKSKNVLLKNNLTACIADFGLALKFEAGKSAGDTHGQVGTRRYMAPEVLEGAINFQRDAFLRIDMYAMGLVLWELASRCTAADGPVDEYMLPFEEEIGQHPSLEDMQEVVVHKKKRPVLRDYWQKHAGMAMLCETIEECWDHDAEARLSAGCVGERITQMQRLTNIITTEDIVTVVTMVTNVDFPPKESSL
T2 sequence (P37173 23-567, species assumed): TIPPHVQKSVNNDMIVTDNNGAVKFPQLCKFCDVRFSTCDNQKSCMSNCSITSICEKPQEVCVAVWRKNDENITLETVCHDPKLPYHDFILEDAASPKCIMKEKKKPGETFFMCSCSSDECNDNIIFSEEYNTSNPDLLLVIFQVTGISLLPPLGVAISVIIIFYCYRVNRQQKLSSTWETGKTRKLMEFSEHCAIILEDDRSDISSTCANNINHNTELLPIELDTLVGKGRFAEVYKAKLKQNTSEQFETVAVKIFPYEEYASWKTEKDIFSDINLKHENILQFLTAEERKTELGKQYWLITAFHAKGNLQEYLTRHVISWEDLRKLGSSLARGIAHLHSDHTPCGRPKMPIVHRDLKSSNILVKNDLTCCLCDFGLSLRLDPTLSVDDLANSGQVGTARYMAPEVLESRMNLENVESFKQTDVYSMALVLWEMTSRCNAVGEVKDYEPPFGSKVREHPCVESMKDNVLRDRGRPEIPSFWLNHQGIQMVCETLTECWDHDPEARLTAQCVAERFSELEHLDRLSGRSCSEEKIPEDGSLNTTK
T6 sequence (P36894 24-532, species assumed): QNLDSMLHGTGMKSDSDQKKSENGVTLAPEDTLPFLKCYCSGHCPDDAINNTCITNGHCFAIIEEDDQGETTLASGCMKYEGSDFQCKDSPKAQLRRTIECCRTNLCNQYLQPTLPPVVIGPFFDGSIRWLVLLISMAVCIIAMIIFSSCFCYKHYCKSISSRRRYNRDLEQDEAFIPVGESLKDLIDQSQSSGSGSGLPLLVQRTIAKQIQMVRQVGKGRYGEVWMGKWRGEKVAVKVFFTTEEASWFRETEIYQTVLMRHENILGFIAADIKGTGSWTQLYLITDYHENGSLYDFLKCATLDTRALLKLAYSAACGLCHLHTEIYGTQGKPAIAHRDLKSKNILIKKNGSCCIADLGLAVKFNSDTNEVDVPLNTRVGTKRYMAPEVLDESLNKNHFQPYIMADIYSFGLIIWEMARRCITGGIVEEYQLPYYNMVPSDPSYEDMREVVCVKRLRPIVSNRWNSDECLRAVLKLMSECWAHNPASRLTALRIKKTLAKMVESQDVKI
T3 sequence (O00238 14-502): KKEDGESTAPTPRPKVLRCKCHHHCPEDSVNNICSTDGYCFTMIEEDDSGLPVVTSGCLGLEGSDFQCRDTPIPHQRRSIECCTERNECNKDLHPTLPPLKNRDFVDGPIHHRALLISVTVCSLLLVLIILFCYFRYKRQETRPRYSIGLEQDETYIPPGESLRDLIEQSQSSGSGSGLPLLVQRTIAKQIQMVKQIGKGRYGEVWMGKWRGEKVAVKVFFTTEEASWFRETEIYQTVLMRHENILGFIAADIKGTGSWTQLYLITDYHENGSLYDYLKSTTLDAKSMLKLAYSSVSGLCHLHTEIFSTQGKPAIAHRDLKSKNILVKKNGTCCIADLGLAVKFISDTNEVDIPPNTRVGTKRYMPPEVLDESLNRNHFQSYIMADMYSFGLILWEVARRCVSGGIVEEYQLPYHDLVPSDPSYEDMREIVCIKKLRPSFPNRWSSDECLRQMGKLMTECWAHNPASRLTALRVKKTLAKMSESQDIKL

Sequence	Effect on ActR-II kinase (ActR-II)	Effect on TβRII kinase (TβRII)	Effect on BMPR-IB (ALK-6) kinase (BMPR-IB (ALK-6))	Effect on ALK-7 kinase (ALK-7)	Effect on ActR-IB (ALK-4) kinase (ActR-IB (ALK-4))	Effect on BMPR-IA (ALK-3) kinase (BMPR-IA (ALK-3))	Effect on TβR-I kinase (TβR-I (ALK-5))
RQIKIWFQNRRMKWKKTQMGSPSVRCSSMS (listed as Homo sapiens) [antp-Sm2S, penetratin fused to the C-terminus of wild-type Smad2]	without any effect	without any effect	without any effect	without any effect	without any effect	without any effect	inhibited
RQIKIWFQNRRMKWKKTQMGSPSVRCSAMA (listed as Homo sapiens) [antp-Sm2A]	without any effect	without any effect	without any effect	without any effect	without any effect	without any effect	inhibited
